The source of these data is patent publication US20060263855A1.

The target in this experiment is α-Hemoglobin (αHb) (UniProt P69905). Briefly: cell-based or functional assay.
Chain of UniProt P69905 (P69905 2-142): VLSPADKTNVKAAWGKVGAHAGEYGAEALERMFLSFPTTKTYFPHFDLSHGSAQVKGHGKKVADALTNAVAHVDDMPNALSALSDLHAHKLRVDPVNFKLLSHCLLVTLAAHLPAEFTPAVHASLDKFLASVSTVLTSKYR

In the case of “α-hemoglobin stabilizing protein (AHSP) (from UniProt Q9NZD4 1-102)”, the Acceleration of rate of αHb oxidation by AHSP (ratio of oxidation rate constants) was 6.2.
